Source: paper PMC6177200, “EpCAM ectodomain EpEX is a ligand of EGFR that counteracts EGF-mediated epithelial-mesenchymal transition through modulation of phospho-ERK1/2 in head and neck cancers” (PLoS Biology, 2018)
Where “and” joins values, the source holds several entries; their conditions need not be identical. Equal entries are not always repeated.

Legend:
[1] = target: T1, EpEX-Fc (extracellular domain of EpCAM fused to the constant region of human immunoglobulin 1) (human), P16422; test: native gel or EMSA; purified EpEX-Fc in native versus reducing immunoblot experiments with specific antibodies; conditions: remark: other sources report otherwise
T1 chain: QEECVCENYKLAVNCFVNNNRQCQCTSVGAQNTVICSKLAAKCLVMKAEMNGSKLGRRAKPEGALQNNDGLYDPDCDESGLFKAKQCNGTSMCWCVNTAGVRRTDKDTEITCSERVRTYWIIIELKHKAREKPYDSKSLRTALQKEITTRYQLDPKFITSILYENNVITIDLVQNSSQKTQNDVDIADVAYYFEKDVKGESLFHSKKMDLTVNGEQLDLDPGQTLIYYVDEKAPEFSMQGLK

[2] = target: T2, EpEX (extracellular domain of EpCAM, aa 24-265), recombinant (human), P16422; test: cross-linking; BS3 cross-linker (3.6 μg, 30 min, 37 °C); EpEX and EGF 250 pmol, EGFRex 50 pmol in 9 μl of 20 mM HEPES pH 8.0, 100 mM NaCl, 1 hr at 37 °C before; EGF added where indicated; conditions: remark: other sources report otherwise
T2 chain: T1 chain

[3] = target: epidermal growth factor receptor (EGFR), endogenous full-length (human (endogenous in FaDu, Cal27, HCT8), UniProt P00533 25-1210); test: cell-based or functional assay
[4] = target: T3, EGFRex (extracellular domain of EGFR, aa 25-642) (UniProt P00533 25-642); test: cross-linking; BS3 cross-linker (3.6 μg, 30 min, 37 °C); EpEX and EGF 250 pmol, EGFRex 50 pmol in 9 μl of 20 mM HEPES pH 8.0, 100 mM NaCl, 1 hr at 37 °C before; EGF added where indicated; conditions: both partners purified
T3 construct: extracellular domain of epidermal growth factor receptor, aa 25-642; source: expressed and purified as reported [118]

B1: EpEX-Fc (extracellular domain of EpCAM fused to the constant region of human immunoglobulin 1), P16422 24-265 (Fc fusion)
chain: T1 chain
modifications: here or on the partner: N-glycosylated; N-glycosylated
**Q.** Which stoichiometry N [1] does the source give for B1 here?
**A.** Its stoichiometry N is 2 and 3.

B2: EpEX (extracellular domain of EpCAM, aa 24-265), recombinant, P16422 24-265 (domain or fragment)
chain: T1 chain
**Q.** How did the stoichiometry N [2] turn out when B2 was run?
**A.** Its stoichiometry N is 2.

B3: EpEX-Fc (extracellular domain of EpCAM fused to the constant region of human immunoglobulin 1) (Fc fusion, UniProt P16422 24-265, looked up)
chain: T1 chain
modifications: N-glycosylated
**Q.** What does the source list for B3?
**A.** increase in cell numbers of serum-starved FaDu cells after 72 hr with high-dose EpEX (10 nM); blocked by Cetuximab [3]: 1.5 fold; increase in cell numbers of serum-starved Kyse30 cells after 72 hr with EpEX-Fc (1 and 10 nM; low dose without significant effect); blocked by Cetuximab [3]: 2 fold; pERK1/2 by immunofluorescence in cells treated for 30 min with EpEX-Fc (10 nM) compared to EGF (9 nM) [3]: 3 fold

B4: EpEX (extracellular domain of EpCAM, aa 24-265), recombinant (domain or fragment, human, UniProt P16422 24-265, looked up)
chain: T1 chain
notes: extracellular domain of EpCAM, aa 24-265; also called purified recombinant EpEX; source: Sf9 insect cells, purified as described [47]
**Q.** With B4 as the binder, how does the “stoichiometry N” value [4] read?
**A.** The value was 1 EpEX per EGFRex and 2 EpEX per EGFRex.
